Experiments:
Assay in all cases: ELISA, antigen coated at 5 µg/mL, anti-HA detection, absorbance at 405 nm
[1] = molecular target: CD28 (human) antigen protein, coated (human, UniProt P10747 19-152)
Method: (§1) (2) The antigen proteins PD-1 (human), PD-1 (monkey), PD-1 (mice), ICOS(human), CTLA-4 (human), CD28 (human), IgG1 (human) were coated overnight at 4° C. with 0.5 μg per well (5 μg/mL, 100 μL), and IgG1 was coated as a control.
(§2) (3) The plates were washed by PBST (×5) next day, and 200 μL 1% BSA was added to block in RT for 2 hours;

[2] = molecular target: T1, PD-1 (mice) antigen protein, coated (mouse, UniProt Q02242 25-167, limits assumed)
T1 construct: also called mouse PD-1
T1 sequence (looked up): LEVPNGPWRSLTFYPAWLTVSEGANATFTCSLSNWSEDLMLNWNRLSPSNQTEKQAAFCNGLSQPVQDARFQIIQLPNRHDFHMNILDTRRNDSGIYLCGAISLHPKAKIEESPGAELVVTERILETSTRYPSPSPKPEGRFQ
Method: as §1, §2

[3] = molecular target: T2, ICOS (human) antigen protein, coated (human, UniProt Q9Y6W8 21-140, limits assumed)
T2 sequence (looked up): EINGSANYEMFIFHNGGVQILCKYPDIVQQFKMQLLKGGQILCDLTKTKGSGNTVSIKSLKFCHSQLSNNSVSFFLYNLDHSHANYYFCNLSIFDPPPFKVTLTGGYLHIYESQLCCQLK
Method: as §1, §2

[4] = molecular target: T3, CTLA-4 (human) antigen protein, coated (human, UniProt P16410 36-161, limits assumed)
T3 sequence (looked up): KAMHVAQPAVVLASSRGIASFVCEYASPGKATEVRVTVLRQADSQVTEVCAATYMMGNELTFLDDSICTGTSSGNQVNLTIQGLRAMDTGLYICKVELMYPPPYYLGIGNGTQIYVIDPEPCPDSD
Method: as §1, §2

Measured: binding result

CD28 (human) antigen protein, coated, sequence (P10747 19-152 limits assumed): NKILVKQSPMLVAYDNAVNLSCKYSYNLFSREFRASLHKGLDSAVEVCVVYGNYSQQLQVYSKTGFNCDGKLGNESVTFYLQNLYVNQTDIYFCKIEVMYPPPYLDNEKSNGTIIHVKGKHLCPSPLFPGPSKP

B1: humanized PD-1 nanobody (amino acid sequence SEQ ID NO.: 14) (VHH)
VHH: QVQLQESGGGLVQPGGSLRLSCAASGSTYLRFSMGWFRQVPGKGLEGVAAIGGDGRTSYADSVKGRFTISKDNSKNTLYLDMNSLRAEDTAVYYCAAAVLLDGSFSLLAPLVPYKYDYWGQGTLVTVSS
modifications: biotinylated (Example 9, sites not stated)
notes: also called Nanobody after humanization; humanized nanobody; not shown: HA and His tags from the pMECS vector
no binding (tested: 10 µg/mL): [1] | [2] | [3] | [4]
